Results published in patent US20060121042A1 (AstraZeneca / MedImmune, published 2006).

Tests used:
hEph A1 = target: T1, hEph A1; assay: ELISA
T1 construct: also called human EphA1; not shown: Fc portion of the probable EphA1-Fc fusion (human IgG1 Fc)
T1 chain: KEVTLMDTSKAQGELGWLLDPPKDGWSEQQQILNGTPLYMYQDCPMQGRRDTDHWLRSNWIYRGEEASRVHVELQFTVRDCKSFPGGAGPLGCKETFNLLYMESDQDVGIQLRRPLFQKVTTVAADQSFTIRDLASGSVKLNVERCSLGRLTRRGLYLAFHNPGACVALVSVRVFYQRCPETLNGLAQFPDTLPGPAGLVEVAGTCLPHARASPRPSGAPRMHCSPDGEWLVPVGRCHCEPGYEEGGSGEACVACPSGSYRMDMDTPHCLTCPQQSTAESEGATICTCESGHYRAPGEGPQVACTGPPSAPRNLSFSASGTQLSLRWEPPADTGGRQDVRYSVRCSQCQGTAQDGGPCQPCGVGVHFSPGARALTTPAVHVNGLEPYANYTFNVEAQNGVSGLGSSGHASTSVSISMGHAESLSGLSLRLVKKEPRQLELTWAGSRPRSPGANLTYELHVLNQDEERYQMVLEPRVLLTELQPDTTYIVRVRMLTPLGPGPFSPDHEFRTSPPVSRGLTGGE

mEph A4 = mEph A4 (mouse, UniProt Q03137); assay: ELISA
mEph A4, sequence (Q03137 20-547 limits assumed): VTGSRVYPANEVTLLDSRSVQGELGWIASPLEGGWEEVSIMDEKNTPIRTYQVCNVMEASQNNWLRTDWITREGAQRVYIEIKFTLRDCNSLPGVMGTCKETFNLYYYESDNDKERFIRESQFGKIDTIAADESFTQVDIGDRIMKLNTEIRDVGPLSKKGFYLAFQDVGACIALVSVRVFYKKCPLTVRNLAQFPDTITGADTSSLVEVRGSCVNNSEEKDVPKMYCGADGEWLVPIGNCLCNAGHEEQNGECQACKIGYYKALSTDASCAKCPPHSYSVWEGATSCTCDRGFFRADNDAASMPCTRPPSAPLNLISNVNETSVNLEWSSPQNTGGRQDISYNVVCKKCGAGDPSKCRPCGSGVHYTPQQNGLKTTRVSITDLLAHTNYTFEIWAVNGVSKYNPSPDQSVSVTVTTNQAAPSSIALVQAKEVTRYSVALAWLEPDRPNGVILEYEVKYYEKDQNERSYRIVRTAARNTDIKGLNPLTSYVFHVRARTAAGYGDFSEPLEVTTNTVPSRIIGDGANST

rEph A5 = rEph A5 (rat, UniProt P54757); assay: ELISA
rEph A5, sequence (P54757 27-575 limits assumed): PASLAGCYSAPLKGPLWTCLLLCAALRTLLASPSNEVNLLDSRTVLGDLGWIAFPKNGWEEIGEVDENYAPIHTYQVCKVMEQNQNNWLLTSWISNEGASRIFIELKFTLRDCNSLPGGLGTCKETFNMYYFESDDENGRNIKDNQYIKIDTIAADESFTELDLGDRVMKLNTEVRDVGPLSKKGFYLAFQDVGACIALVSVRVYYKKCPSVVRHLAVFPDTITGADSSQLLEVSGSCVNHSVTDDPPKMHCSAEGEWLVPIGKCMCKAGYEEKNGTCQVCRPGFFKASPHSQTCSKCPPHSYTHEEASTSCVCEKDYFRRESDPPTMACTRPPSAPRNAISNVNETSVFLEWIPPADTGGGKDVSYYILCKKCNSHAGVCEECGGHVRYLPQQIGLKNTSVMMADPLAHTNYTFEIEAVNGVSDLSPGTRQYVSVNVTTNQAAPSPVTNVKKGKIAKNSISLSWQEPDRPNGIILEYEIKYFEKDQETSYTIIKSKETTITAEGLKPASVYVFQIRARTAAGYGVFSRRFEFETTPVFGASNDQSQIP

mEph A6 = target: T2, mEph A6 (mouse, UniProt Q62413); assay: ELISA
T2 sequence (receptor, looked up): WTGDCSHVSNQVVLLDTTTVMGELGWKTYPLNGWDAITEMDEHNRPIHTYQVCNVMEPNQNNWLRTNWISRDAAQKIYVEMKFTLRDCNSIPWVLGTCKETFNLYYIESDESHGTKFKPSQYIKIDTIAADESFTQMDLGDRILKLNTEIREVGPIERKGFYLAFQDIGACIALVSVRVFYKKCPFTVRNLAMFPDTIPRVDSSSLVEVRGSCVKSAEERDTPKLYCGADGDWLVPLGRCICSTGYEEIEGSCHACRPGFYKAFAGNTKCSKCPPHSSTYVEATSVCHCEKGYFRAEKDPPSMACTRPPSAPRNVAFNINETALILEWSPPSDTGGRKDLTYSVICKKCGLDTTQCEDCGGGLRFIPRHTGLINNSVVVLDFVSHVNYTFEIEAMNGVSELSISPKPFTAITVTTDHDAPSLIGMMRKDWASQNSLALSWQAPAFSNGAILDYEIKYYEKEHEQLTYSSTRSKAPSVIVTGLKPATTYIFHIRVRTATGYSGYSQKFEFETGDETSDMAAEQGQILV

[1] = target: T3, human EphA4 (construct not given) (human, UniProt P54764 20-547, limits assumed); assay: ELISA
T3 construct: also called EphA4 receptor
T3 sequence (P54764 20-547 limits assumed): as the sequence (Q03137 20-547 limits assumed) above, with A59P, S121N, G124V, Q250R, N251S, S270T, R378K, S406N counted along it

rrEphB1 = target: T4, rrEphB1 (rat, UniProt P09759); assay: ELISA
T4 sequence (receptor, looked up): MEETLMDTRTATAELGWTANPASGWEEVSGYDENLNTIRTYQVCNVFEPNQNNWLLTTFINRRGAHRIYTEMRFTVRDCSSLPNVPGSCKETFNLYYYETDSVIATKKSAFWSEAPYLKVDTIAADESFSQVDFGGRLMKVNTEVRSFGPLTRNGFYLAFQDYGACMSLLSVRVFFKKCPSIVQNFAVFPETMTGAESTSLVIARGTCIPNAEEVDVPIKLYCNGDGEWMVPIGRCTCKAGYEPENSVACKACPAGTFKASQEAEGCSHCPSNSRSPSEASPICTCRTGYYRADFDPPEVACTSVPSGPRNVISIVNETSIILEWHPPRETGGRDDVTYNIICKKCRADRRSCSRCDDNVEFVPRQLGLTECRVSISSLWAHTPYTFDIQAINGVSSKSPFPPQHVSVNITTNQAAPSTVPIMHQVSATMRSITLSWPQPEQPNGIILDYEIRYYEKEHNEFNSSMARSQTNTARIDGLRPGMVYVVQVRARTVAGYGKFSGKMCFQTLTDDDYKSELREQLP

rmEph B2 = target: T5, rmEph B2 (mouse, UniProt P54763); assay: ELISA
T5 sequence (receptor, looked up): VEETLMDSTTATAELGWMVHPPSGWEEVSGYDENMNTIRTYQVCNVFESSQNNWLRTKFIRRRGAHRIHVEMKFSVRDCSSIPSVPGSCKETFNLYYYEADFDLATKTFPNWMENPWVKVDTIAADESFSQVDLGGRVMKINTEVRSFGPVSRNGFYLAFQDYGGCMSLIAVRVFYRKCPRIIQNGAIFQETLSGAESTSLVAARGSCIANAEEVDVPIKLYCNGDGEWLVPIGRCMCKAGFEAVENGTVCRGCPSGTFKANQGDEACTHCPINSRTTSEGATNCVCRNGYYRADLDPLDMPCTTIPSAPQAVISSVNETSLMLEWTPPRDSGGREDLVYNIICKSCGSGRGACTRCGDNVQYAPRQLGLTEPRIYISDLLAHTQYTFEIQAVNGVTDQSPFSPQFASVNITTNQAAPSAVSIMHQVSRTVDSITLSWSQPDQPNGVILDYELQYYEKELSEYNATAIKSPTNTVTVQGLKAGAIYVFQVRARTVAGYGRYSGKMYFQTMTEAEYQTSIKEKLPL

rmEph B3 = target: T6, rmEph B3 (mouse, UniProt P54754); assay: ELISA
T6 sequence (receptor, looked up): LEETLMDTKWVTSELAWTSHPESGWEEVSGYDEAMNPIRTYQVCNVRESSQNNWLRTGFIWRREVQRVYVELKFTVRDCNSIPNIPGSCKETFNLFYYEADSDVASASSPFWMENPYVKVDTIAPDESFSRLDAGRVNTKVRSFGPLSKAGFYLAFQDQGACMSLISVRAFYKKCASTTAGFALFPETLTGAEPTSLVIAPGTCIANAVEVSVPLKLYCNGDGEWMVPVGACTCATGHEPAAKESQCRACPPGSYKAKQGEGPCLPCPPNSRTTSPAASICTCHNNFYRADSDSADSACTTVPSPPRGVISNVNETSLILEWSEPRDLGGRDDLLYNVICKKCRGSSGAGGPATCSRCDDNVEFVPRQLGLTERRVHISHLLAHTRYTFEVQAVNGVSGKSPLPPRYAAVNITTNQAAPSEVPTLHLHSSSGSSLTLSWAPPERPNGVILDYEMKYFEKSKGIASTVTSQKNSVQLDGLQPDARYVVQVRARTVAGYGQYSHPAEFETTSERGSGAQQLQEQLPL

r murine EphA4 = target: T7, r murine EphA4 (mouse, UniProt Q03137); assay: activity ELISA, Fab on coated antigen
T7 construct: recombinant Fc fusion (R&D Systems); also called rmuEphA4-Fc; mEphA4
T7 sequence (Q03137 20-547 limits assumed): as the sequence (Q03137 20-547 limits assumed) above
Protocol: (§1) More precisely, Nunc Maxisorp plates were coated with the following rEphA proteins: rhuEphAl-Fc, rmuEphA2-Fc, rmuEphA3-Fc, rmuEphA4-Fc, rratEphA5-Fc, rmuEphA6-Fc, rmuEphA7-Fc, rEphA8; all at 0.5 μg/well (all R&D Systems) rhuEphA2-Fc; 0.5 μg/well, and rhuEphA4-His; 0.1 μg/well (both produced at MedImmune, Inc.). Plates were blocked with 3% BSA+0.1% Tween20 for 2 h. […] Incubation with a goat anti-human kappa horseradish peroxydase (HRP) conjugate then followed. HRP activity was detected with TMB substrate and the reaction quenched with 0.2 M H₂SO₄. Plates were read at 450 nm. Data was analyzed by normalizing Fab concentrations to the corresponding activity data (see FIGS. 10B-10H).

r murine EphA7 = target: T8, r murine EphA7 (mouse, UniProt Q61772); assay: activity ELISA, Fab on coated antigen
T8 construct: recombinant Fc fusion (R&D Systems); also called rmuEphA7-Fc; mEphA7
T8 sequence (receptor-Fc fusion, looked up): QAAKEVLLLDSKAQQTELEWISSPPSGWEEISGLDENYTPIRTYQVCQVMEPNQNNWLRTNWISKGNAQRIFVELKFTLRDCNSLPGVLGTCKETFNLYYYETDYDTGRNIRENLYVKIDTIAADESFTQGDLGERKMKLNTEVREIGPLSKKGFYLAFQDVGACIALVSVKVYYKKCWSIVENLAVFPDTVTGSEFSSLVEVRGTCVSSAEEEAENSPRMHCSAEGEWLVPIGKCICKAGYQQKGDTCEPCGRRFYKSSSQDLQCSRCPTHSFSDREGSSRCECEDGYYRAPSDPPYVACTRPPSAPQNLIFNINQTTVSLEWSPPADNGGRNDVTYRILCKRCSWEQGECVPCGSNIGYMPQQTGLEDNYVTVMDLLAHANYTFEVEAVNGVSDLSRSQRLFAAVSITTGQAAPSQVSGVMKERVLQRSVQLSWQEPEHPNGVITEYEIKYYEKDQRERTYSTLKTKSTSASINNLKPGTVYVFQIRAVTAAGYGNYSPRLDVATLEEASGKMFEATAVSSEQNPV
Protocol: as §1

r murine EphA8 [2] = target: T9, r murine EphA8 (mouse, UniProt O09127); assay: activity ELISA, Fab on coated antigen
T9 construct: recombinant (rEphA8, R&D Systems); also called rEphA8
T9 sequence (receptor, looked up): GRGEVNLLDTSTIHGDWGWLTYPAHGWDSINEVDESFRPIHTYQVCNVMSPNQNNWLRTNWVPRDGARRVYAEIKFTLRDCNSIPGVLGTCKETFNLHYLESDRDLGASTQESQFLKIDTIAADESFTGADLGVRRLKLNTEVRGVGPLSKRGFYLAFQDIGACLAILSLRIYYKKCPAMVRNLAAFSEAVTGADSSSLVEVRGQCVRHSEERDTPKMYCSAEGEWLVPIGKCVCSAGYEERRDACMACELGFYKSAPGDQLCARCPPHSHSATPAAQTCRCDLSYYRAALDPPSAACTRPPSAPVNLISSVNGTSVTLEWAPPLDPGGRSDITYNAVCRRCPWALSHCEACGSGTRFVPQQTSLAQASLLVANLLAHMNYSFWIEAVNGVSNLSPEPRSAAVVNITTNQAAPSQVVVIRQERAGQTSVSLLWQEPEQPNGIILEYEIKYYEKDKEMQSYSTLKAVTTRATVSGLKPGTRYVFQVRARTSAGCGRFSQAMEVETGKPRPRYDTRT
Protocol: as §1

r murine EphA8 [3] = target: T10, r murine EphA8 (mouse, UniProt O09127); assay: Activity ELISA, receptor coated on the plate, periplasmic Fab, anti-human kappa-HRP, OD 450 nm
T10 construct: recombinant soluble protein coated on the plate; also called mEphA8; rEphA8
T10 sequence (receptor construct, looked up): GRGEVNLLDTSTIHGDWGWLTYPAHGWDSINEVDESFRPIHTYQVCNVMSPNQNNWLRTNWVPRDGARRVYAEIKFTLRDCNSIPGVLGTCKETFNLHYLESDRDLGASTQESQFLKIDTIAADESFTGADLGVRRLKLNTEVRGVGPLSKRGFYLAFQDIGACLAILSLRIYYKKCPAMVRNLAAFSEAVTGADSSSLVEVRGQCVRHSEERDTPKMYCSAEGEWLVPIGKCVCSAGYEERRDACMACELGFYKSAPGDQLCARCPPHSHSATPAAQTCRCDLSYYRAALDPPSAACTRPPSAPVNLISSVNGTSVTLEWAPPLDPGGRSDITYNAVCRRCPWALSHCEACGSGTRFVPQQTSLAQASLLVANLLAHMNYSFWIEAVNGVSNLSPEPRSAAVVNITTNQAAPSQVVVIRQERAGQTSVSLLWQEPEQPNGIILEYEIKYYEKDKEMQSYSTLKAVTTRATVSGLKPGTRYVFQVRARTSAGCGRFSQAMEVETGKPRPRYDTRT

Binder	ELISA O.D. value (hEph A1)	ELISA O.D. value (mEph A4)	ELISA O.D. value (rEph A5)	ELISA O.D. value (mEph A6)	ELISA O.D. value [1]	binding result (rrEphB1)	ELISA O.D. value (rmEph B2)	binding result (rmEph B3)	binding result (r murine EphA4)	binding result (r murine EphA7)	binding result (r murine EphA8 [2])	binding result (r murine EphA8 [3])
GEA44 11H1 (antibody, V domains shown, same variable regions as m16) VH: QVQLLQSGAEVKKPGASVKVPCKASGYTFTSYAMSWVRQAPGQGLEWMGWINTNTGNPTYAQGFTGRFVFSLDTSVSTAYLQISSLKAEDTAVYYCARVRLTVYGDGMDVWGQGTLVTVSS VL: EIVLTQSPATLSVSPGERATLSCRASQSVSSNLAWYQQKPGQAPRLLIYGASTRATGIPDRFSASGSGTDFTLTISRVEPEDFAVYYCQQYGSSWTFGQGTKVEIK	0.784	0.358	0.717	1.43	0.887	binds	0.581	binds	–	–	–	–
3A12 Fab (affinity optimized combinatorial variant of Fab20) (Fab, V domains shown) VH: QVQLLQSGAEVKKPGASVKVPCKASGYTFTSRAMSWVRQAPGQGLEWMGWINTNTGNPTYAQGFTGRFVFSLDTSVSTAYLQISSLKAEDTAVYYCARVRFTVYGDGMDVWGQGTLVTVSS VL: EIVLTQSPATLSVSPGERATLSCRASQSVSSNLAWYQQKPGQAPRLLIYGASTWATGIPDRFSASGSGTDFTLTISRVEPEDFAVYYCQQYGPSWTFGQGTKVEIK	–	–	–	–	–	–	–	–	binds	binds	binds	binds
